Reference: PMC3148250, “Structural Basis for Sequence Specific DNA Binding and Protein Dimerization of HOXA13” (PLoS ONE, 2011)

Key:
[1] = target: the molecule itself; assay: 15N NMR relaxation (rotational correlation time); A13DBD bound to 11-mer DNA duplex, about 0.5 mM, 310 K, 20 mM NaPO4, 5 mM MgCl2, pH 6.0; R2/R1 gives the rotational correlation time and a spherical mass
[2] = target: the molecule itself; assay: SEC-MALS; A13DBD bound to 11-mer DNA duplex; Superdex 75 HR 10/30 at 4°C, calibrated with mass standards, in line with MALS and refractive index; mass as a function of protein concentration; dimer to monomers
[3] = target: the molecule itself; assay: not stated; K343E mutant of A13DBD; the method is not named for this mutant (the neighbouring mutants were tested by SEC/MALS of the DNA complex)

B1: HOXA13 DNA binding domain (A13DBD), wild type (domain or fragment)
chain: not shown
notes: numbers count on: GenBank AAB03322.1; The introduction gives residues 314-386 for A13DBD, the methods G320-S386; Cloned in pET-15b; also called HOXA13 homeodomain; WT; source: E. coli BL21(DE3), purified (His-tag purification, thrombin cleavage, Superdex-75)
stoichiometry N [1]: 2
Kd [2]: < 500 nM

B2: HOXA13 DNA binding domain (A13DBD) F344A (domain or fragment)
chain: not shown
notes: numbers count on: GenBank AAB03322.1; Made by QuikChange mutagenesis of pHisA13DBD; The luciferase assay used the same mutation in full-length HOXA13 (pCAGGS-HOXA13) in NG108-15 cells; source: E. coli BL21(DE3), purified (His-tag purification, thrombin cleavage, Superdex-75)
fold weakening of the dimerization affinity against wild type [2]: ≥ 10 fold

B3: HOXA13 DNA binding domain (A13DBD) K343E (domain or fragment)
chain: not shown
notes: numbers count on: GenBank AAB03322.1; source: E. coli BL21(DE3), purified (His-tag purification, thrombin cleavage, Superdex-75)
fold lowering of the dimerization affinity against wild type [3]: ~5 fold
